According to publication PMC5148612:

Tests used:
[1] = molecular target: Atg5 K57E,N84E-TAP (S. cerevisiae) (UniProt Q12380); test: co-IP; as a14 but with plasmid Atg16 E102A instead of Atg16 wild type (Figure 5F)
[2] = molecular target: Atg5 K57E,N84E-TAP (S. cerevisiae) (UniProt Q12380); test: co-IP; lysates of atg16∆ atg19∆ S. cerevisiae with integrated Atg5-TAP or Atg5 K57E,N84E-TAP, plasmid 6xmyc-Atg19 and plasmid Atg16 wild type; IgG beads (Figure 5F)

Sequence of Atg5 K57E,N84E-TAP (S. cerevisiae) (Q12380 whole entry K57E/N84E): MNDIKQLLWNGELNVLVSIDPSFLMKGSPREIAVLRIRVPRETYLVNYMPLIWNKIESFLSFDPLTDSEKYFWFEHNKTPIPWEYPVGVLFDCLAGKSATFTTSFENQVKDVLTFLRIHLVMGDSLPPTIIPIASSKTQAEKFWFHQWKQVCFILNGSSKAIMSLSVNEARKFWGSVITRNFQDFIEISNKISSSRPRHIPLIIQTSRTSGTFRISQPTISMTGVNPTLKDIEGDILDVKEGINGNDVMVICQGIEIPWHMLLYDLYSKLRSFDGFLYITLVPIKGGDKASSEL

6xmyc-Atg19 pulled down, percent of the sample with wild type Atg5 and Atg16 [1]: 2.9% | 6xmyc-Atg19 pulled down, percent of the sample with wild type Atg5 and Atg16 [2]: 13%
Substance: 6xmyc-Atg19 (from UniProt P35193 1-415) (natural protein)
